From patent publication US20200017592A1 (Regeneron, published 2020)

T1: full-length human IL-36R on cells (human, UniProt Q9HB29 20-575)
T1 sequence (looked up): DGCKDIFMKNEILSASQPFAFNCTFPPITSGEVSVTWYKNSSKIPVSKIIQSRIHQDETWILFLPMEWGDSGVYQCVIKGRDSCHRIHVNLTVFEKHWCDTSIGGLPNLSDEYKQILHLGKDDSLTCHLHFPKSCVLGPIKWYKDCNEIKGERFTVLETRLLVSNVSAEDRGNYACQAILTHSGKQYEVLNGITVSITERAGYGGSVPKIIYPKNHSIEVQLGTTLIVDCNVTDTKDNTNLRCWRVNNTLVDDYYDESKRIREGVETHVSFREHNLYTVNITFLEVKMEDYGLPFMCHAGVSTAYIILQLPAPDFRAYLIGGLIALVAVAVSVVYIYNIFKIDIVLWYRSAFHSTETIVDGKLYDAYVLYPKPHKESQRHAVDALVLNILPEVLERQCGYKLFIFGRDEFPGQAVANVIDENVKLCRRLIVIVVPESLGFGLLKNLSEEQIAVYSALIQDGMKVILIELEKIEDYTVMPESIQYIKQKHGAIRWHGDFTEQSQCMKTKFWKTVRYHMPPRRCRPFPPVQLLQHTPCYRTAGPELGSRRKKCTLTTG

T2: Macaca fascicularis IL-36R on cells (Macaca fascicularis, UniProt A0A2K5WSK9 20-558)
T2 sequence: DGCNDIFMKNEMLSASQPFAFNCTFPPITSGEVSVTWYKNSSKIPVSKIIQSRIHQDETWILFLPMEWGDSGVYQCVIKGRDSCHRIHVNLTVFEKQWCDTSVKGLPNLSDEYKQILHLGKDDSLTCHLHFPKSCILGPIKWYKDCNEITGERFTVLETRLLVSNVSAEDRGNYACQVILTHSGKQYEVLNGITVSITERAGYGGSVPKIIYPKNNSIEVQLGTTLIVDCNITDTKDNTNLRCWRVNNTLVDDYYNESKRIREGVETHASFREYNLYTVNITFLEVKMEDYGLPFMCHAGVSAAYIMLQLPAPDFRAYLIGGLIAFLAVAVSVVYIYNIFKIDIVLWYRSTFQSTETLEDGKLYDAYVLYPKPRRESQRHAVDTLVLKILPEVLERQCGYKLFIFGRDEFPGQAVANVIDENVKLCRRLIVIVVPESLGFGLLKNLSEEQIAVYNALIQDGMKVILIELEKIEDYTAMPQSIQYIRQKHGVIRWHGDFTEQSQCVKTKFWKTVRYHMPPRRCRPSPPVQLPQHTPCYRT


What was measured:
[1] = target: T3, recombinant human IL-36R extracellular domain expressed with a C-terminal myc-myc-hexahistidine tag (human, UniProt Q9HB29 20-337); assay: SPR (Biacore 4000), mAb captured on anti-human Fc, 25°C
T3 construct: also called hIL-36R-MMH; hIL-36R.mmH
Method: (§1) Equilibrium dissociation constants (KD values) for IL-36R binding to purified anti-IL-36R antibodies were determined using a real-time surface plasmon resonance biosensor using a Biacore 4000 instrument. The Biacore sensor surface was first derivatized by amine coupling with a monoclonal mouse anti-human Fc antibody (GE, # BR-1008-39) to capture anti-IL-36R monoclonal antibodies. All binding studies were performed in 0.01 M Hepes pH 7.4, 0.15 M NaCl, 3 mM EDTA, and 0.05% v/v Surfactant Tween-20 (HBS-ET running buffer) at 25° C. and 37° C. Different concentrations of IL-36R reagents, human IL-36R extracellular domain expressed with a C-terminal myc-myc-hexahistidine tag (hIL-36R-MMH), Macaca fascicularis IL-36R extracellular domain expressed with a C-terminal myc-myc-hexahistidine tag (mfIL-36R-MMH: mROR1 signal sequence (M1-A29). Macaca fascicularis IL36R_ecto domain (D20-A336).mycmycHis6), human IL-36R extracellular domain expressed with a C-terminal mouse IgG2a Fc tag (hIL-36R-mFc: mROR1 signal sequence (M1-A29)-human IL36R (D20-Y337)-mouse IgG2aFc (E98-K330)) or an in-line fusion protein of human IL-36R extracellular domain and IL1RAcP extracellular domain expressed with mouse IgG2a Fc tag (hIL-36R-Trap-mFc: mROR1 signal sequence (M1-A29)-human IL36R ecto domain (D20-Y337)-human IL1RacP ecto domain(S21-E359)-mouse IgG2aFc) in HBS-ET running buffer (ranging from 100 nM to 3.7 nM, 3-fold dilutions) were injected over the anti-IL-36R antibody captured surface for 4 minutes at a flow rate of 30 μL/minute and their dissociation in HBS-ET running buffer was monitored for 10 minutes. Kinetic association rate constant (kₐ) and dissociation rate constant (kd) were determined by fitting the real-time sensorgrams to a 1:1 binding model using Scrubber 2.0c curve fitting software. Binding dissociation equilibrium constants (KD) and dissociative half-lives (t_{1/2}) were calculated from the kinetic rate constants as: […]

[2] = target: T3, recombinant human IL-36R extracellular …; assay: SPR (Biacore 4000), mAb captured on anti-human Fc, 37°C
Method: as §1

[3] = target: T1, full-length human IL-36R on cells; assay: cell-based or functional assay
[4] = target: T2, Macaca fascicularis IL-36R on cells; assay: cell-based or functional assay

| Binder | 100 nM hIL-36R-MMH Bound (RU) [1] [RU] | Kd [1] [nM] | koff [1] [s⁻¹] | kon [1] [M⁻¹ s⁻¹] | t½ [1] [min] | 100 nM hIL-36R-MMH Bound (RU) [2] [RU] | Kd [2] [nM] | koff [2] [s⁻¹] | kon [2] [M⁻¹ s⁻¹] | t½ [2] [min] | IC50 [M], NFκB-luciferase, 10 pM hIL-36γ [3] [M] | IC50 [M], NFκB-luciferase, 20 pM hIL-36α [3] [M] | Max Inhibition (%), NFκB-luciferase, 10 pM hIL-36γ [3] [%] | Max Inhibition (%), NFκB-luciferase, 20 pM hIL-36α [3] [%] | IC50 [M], NFκB-luciferase, 300 pM hIL-36γ [4] [M] | IC50 [M], NFκB-luciferase, 500 pM hIL-36α [4] [M] | IC50 [M], NFκB-luciferase, 600 pM hIL-36β [4] [M] | Max Inhibition (%), NFκB-luciferase, 300 pM hIL-36γ [4] [%] | Max Inhibition (%), NFκB-luciferase, 500 pM hIL-36α [4] [%] | Max Inhibition (%), NFκB-luciferase, 600 pM hIL-36β [4] [%] | further results |
| --- | --- | --- | --- | --- | --- | --- | --- | --- | --- | --- | --- | --- | --- | --- | --- | --- | --- | --- | --- | --- | --- |
| H4H14709P (antibody, human IgG4 S228P, kappa, V domains shown) VH: EVQLVESGGGLVQPGGSLRLSCAASGFTFSDYAMSWVRQAPGKGLEWVSGISGNGGDTYYGDFVKGRFTISRDNSKNTLYLQMNSLRGEDTAAYFCVIDLDYWGQGTLVTVSS VL: DIQMTQSPSTLSASEGDRVTITCRASQSISSWLAWYQQKPGKAPRLLIYKASILGDGVPSRFSGSGSGTEFTLTISSLQPDDFATYYCHQYNSYLWTFGQGTKVEIKR | 64 | 4.09 | 0.000296 | 72300 | 39 | 106 | 4.25 | 0.000554 | 131000 | 21 | 1.3e-10 | 1.4e-10 | 24 | 22 | – | – | – | – | – | – | – |
| H4H14699P2 (antibody, human IgG4 S228P, kappa, V domains shown, Fully human anti-IL-36R antibody) VH: EVQLVESGGGLVQPGRSLRLSCAASGFTFDDYAIHWVRQAPGKGLEWVSVISWNSDIIGYADSVKGRFTVSRDNAKNSLYLQMNSLRTEDTALYYCAKGYNWNFFDYWGQGTLVTVSS VL: EIVLTQSPATLSLSPGERATLSCRASQSVSSYLAWYQQKPGQAPRLLIYNAANRATDIPARFSGSGSGTDFTLTISSLEPEDFAVYYCQQRSNWPLTFGGGTKVEIKR | 74 | 10.2 | 0.00168 | 165000 | 7 | 89 | 29.5 | 0.00418 | 142000 | 2.8 | 1.4e-10 | 1.3e-10 | 99 | 100 | 2e-10 | 8.4e-11 | 1.9e-10 | 97 | 97 | 98 | IC50 [M], NFκB-luciferase, 15 pM hIL-36β [3]: 1.3e-10 M; Max Inhibition (%), NFκB-luciferase, 15 pM hIL-36β [3]: 100% |
| H4H14700P2 (antibody, human IgG4 S228P, kappa, V domains shown) VH: EVQLVESGGGLVQPGRSLRLSCAASGFTFDDYAMHWVRQTPGKGLEWVSVISWNSDVIAYSDSVKGRFTISRDNAKNSLYLQMNSLGTEDTALYYCAKGHNWNFFDYWGQGTLVTVSS VL: EIVLTQSPATLSLSPGERATLSCRASQSVSSYLAWYQQKPGQAPRLLIYNVANRATDIPARFSGSGSGTDFTLTISGLEPEDFAVYFCQQRSNWPLTFGGGTKVEIKR | 67 | 4.82 | 0.000579 | 120000 | 20 | 89 | 10.5 | 0.00184 | 176000 | 6 | 1.2e-10 | 1.9e-10 | 100 | 101 | 1.8e-10 | 1.2e-10 | 1.8e-10 | 99 | 99 | 99 | IC50 [M], NFκB-luciferase, 15 pM hIL-36β [3]: 2e-10 M; Max Inhibition (%), NFκB-luciferase, 15 pM hIL-36β [3]: 100% |

Now from value to binder, other results behind:

| 100 nM hIL-36R-MMH Bound (RU) [1] [RU] | Kd [1] [nM] | koff [1] [s⁻¹] | kon [1] [M⁻¹ s⁻¹] | t½ [1] [min] | 100 nM hIL-36R-MMH Bound (RU) [2] [RU] | Kd [2] [nM] | koff [2] [s⁻¹] | kon [2] [M⁻¹ s⁻¹] | t½ [2] [min] | IC50 [M], NFκB-luciferase, 10 pM hIL-36γ [3] [M] | IC50 [M], NFκB-luciferase, 20 pM hIL-36α [3] [M] | Max Inhibition (%), NFκB-luciferase, 10 pM hIL-36γ [3] [%] | Max Inhibition (%), NFκB-luciferase, 20 pM hIL-36α [3] [%] | IC50 [M], NFκB-luciferase, 300 pM hIL-36γ [4] [M] | IC50 [M], NFκB-luciferase, 500 pM hIL-36α [4] [M] | IC50 [M], NFκB-luciferase, 600 pM hIL-36β [4] [M] | Max Inhibition (%), NFκB-luciferase, 300 pM hIL-36γ [4] [%] | Max Inhibition (%), NFκB-luciferase, 500 pM hIL-36α [4] [%] | Max Inhibition (%), NFκB-luciferase, 600 pM hIL-36β [4] [%] | Binder | further results |
| --- | --- | --- | --- | --- | --- | --- | --- | --- | --- | --- | --- | --- | --- | --- | --- | --- | --- | --- | --- | --- | --- |
| 22 | 12.2 | 0.000404 | 33200 | 29 | 25 | 13.9 | 0.000749 | 53900 | 15 | – | – | – | – | – | – | – | – | – | – | H4H14734P2 (antibody, human IgG4 S228P, kappa, V domains shown) VH: EVQLVESGGGLVKPGGSLRLSCAASGFIFSNAWMNWVRQAPGKGLAWVGRIKTETDGGTTDYAAPVKGRFTISRDDSKNTLYLQMNSVKTEDTAVYYCTGGYSYGDDSSSWNEGYYYYGMDVWGQGTTVTVSS VL: not shown | – |
| 69 | 7.87 | 0.000773 | 98300 | 15 | 93 | 21.5 | 0.00293 | 136000 | 4 | 1.2e-09 | 9.7e-10 | 99 | 97 | 2e-09 | 1.3e-09 | 1.5e-09 | 93 | 93 | 95 | H4H14728P (antibody, human IgG4 S228P, kappa, V domains shown) VH: QVQLQESGPGLVKPSQTLSLTCTVSGGSISSADYYWSWIRQHPGKGLEWIGSIYYTGSTYYNPSLKSRLTISIDTSENQFSLKLTSLTAADTAVYYCASEEANWGSHFDSWGQGTLVTVSS VL: DIQMTQSPSSLSASVGDRVTITCRASQSIDNFLNWYQQKPGKAPKLLIYAASSLQSGVPSRFSGSGSGTDFTLTISSLQPEDFASYYCQHSHSAHPITFGQGTRLEIKR | IC50 [M], NFκB-luciferase, 15 pM hIL-36β [3]: 1.3e-09 M; Max Inhibition (%), NFκB-luciferase, 15 pM hIL-36β [3]: 99% |
| 87 | 7.63 | 0.000923 | 121000 | 13 | 111 | 15 | 0.00237 | 158000 | 5 | 1.6e-10 | 1.2e-10 | 57 | 100 | – | – | – | – | – | – | H4H14758P (antibody, human IgG4 S228P, kappa, V domains shown) VH: EVQLVESGGGLVQPGRSLRLSCAASGFTFDDYAMHWVRQAPGKGLEWVSSVRWNGGIIGYADSVKGRFTISRDNAKNSLYLQMNSLRPEDTALYYCAKDIGDVLTGYYGEYGMDVWGQGTTVTVSS VL: DIQMTQSPSSLSASVGDRVTIACRASQSITTYLNWYQQKPGKAPKLLIYAASSLQSGVPSRFSGSGSGTDFTLTISSLQPEDFATYYCQQSYISPYTFGQGTKLEIKR | – |
